From PMC11092324

Biological target: CV-1A1 Fv-clasp (UniProt Q13043)
Test: ELISA; sandwich ELISA: CV-1A1 Fv-clasp or scFv (0.7 µM in 50 mM carbonate buffer pH 9.6) coated on high-binding microplates, VLPs added in twofold serial dilutions, 37°C 2 h, detected with rabbit anti-VLP antisera; data fit to the Michaelis-Menten equation, Km taken as Kd (affinity or avidity); concentration counted as VP1

## GI.4 Chiba virus-like particles (VP1 major capsid protein of the norovirus GI.4 Chiba strain) (complex)
  Kd: 3.77 nM
